Laboratory results taken from paper PMC7320144 (Nature Communications, 2020).

Tests used:
[1] = test system: O=[N+]([O-])c1ccc(OP(=O)(O)O)cc1; assay: purified protein; type: biochemical, Plasmodium falciparum; settings: Mg2+; 25.0 °C
[2] = target: T1, PfISN1 (IMP-specific nucleotidase 1) (Plasmodium falciparum, UniProt A0A144A134); assay: crystal structure; enzyme activation at pH […]; type: biochemical
T1 construct: gene ISN1; wild-type, full-length

[3] = target: PfISN1 D172N-ΔN30 (Plasmodium falciparum); assay: crystal structure
[4] = target: PfISN1 D172N (full-length inactive mutant) (Plasmodium falciparum); assay: crystal structure
[5] = target: the molecule itself; assay: crystal structure; vapour diffusion in sitting drops at 292 K; protein 13 mg/mL in 50 mM Tris-HCl pH 8.0, 100 mM NaCl (or 50 mM MES pH 5.0, 100 mM NaCl); apo, ATP-bound or IMP-Mg2+-bound forms; homo-tetramer

“PfISN1 (IMP-specific nucleotidase 1) (Plasmodium falciparum 3D7; D172N)” gave a Km [1] of 1510 ± 150 µM, a kcat [1] of 0.28 ± 0.01 s⁻¹ and a kcat/Km [1] of 190 ± 20 M⁻¹ s⁻¹.

`Nc1ncnc2c1ncn2[C@@H]1O[C@H](COP(=O)(O)OP(=O)(O)OP(=O)(O)O)[C@@H](O)[C@H]1O` [ATP] gave an EC50 [2] of 3.8 ± 0.7 mM.

“PfISN1 D172N-ΔN30 (from UniProt A0A144A134 31-444) (domain or fragment)” showed a stoichiometry N [3] of 4.

Work on “PfISN1 D172N (full-length inactive mutant) (from UniProt A0A144A134 1-444) (enzyme)” yielded a stoichiometry N [4] of 4.

B1: PfISN1-ΔC10 (domain or fragment, Plasmodium falciparum, UniProt A0A144A134 1-434, looked up)
chain: MKNLDINTFDNIEDIPLGSSEQDPYDFFTLSDRNVMNSDMKKNIVQWNSRYSYNQLKNKDSLIMFLVEIFRSLFVSNCIDKNIDNVLLSIEEMFIDHYYNPQHSRLKYLIDDVGIFFTKLPITKAFHTYNKKYRITKRLYAPPTFNEVRHILNLAQILSLEEGLDLLTFDADETLYPDGHDFNDEVLASYISCLLKKMNIAIVTAASYNNDAEKYQKRLENLLKYFSKHNIKDGSYKNFYVMGGESNYLFKCNEEATLYSVPENEWRHYKKFVDYDTVQEILNISEKCLEKVIKDFGLCAQIQRKEKSIGLVPNKIPSLNIKNEQKNYMIKYEVLEEAVIRIKKEIIKNKITAPYCAFNGGQDLWVDVGNKAEGLLILQKLLKIQKKKCCHIGDQFLHSGNDFPTRFCSLTLWVSNPQETKACLKSIMHLNIKS
notes: PfISN1 (444 amino acids, gene PF3D7_1206100) truncated by ten residues at the C-terminus; Construct details are in Supplementary Methods; also called ∆C10-truncated PfISN1; source: E. coli BL21-CodonPlus (DE3)-RIL (structural studies), purified
In the case of B1, the “stoichiometry N” value [5] is reported as 4.

B2: Plasmodium falciparum IMP-specific nucleotidase 1 (PfISN1), wild type (enzyme, UniProt A0A144A134 1-444, looked up)
chain: MKNLDINTFDNIEDIPLGSSEQDPYDFFTLSDRNVMNSDMKKNIVQWNSRYSYNQLKNKDSLIMFLVEIFRSLFVSNCIDKNIDNVLLSIEEMFIDHYYNPQHSRLKYLIDDVGIFFTKLPITKAFHTYNKKYRITKRLYAPPTFNEVRHILNLAQILSLEEGLDLLTFDADETLYPDGHDFNDEVLASYISCLLKKMNIAIVTAASYNNDAEKYQKRLENLLKYFSKHNIKDGSYKNFYVMGGESNYLFKCNEEATLYSVPENEWRHYKKFVDYDTVQEILNISEKCLEKVIKDFGLCAQIQRKEKSIGLVPNKIPSLNIKNEQKNYMIKYEVLEEAVIRIKKEIIKNKITAPYCAFNGGQDLWVDVGNKAEGLLILQKLLKIQKKKCCHIGDQFLHSGNDFPTRFCSLTLWVSNPQETKACLKSIMHLNIKSFIPEVLYENQ
notes: IMP-specific 5'-nucleotidase 1 (ISN1, EC 3.1.3.99) of Plasmodium falciparum, 444 amino acids, gene PF3D7_1206100; domains M1-K59 (NTRD), D60-T143 (OD), F144-K270 and K371-Q444 (CD), K271-N370 (cap); Cloned into pET-21bN; details of constructs and of purification for structural studies are in Supplementary Methods; A selenomethionine derivative (E. coli B834 (DE3)) was used for phasing; also …
For B2, the “stoichiometry N” value [5] was 4.

B3: PfISN1-ΔN59 (domain or fragment, Plasmodium falciparum, UniProt A0A144A134 60-444, looked up)
chain: DSLIMFLVEIFRSLFVSNCIDKNIDNVLLSIEEMFIDHYYNPQHSRLKYLIDDVGIFFTKLPITKAFHTYNKKYRITKRLYAPPTFNEVRHILNLAQILSLEEGLDLLTFDADETLYPDGHDFNDEVLASYISCLLKKMNIAIVTAASYNNDAEKYQKRLENLLKYFSKHNIKDGSYKNFYVMGGESNYLFKCNEEATLYSVPENEWRHYKKFVDYDTVQEILNISEKCLEKVIKDFGLCAQIQRKEKSIGLVPNKIPSLNIKNEQKNYMIKYEVLEEAVIRIKKEIIKNKITAPYCAFNGGQDLWVDVGNKAEGLLILQKLLKIQKKKCCHIGDQFLHSGNDFPTRFCSLTLWVSNPQETKACLKSIMHLNIKSFIPEVLYENQ
notes: PfISN1 (444 amino acids, gene PF3D7_1206100) with the N-terminal regulatory domain (NTRD, M1 to K59) deleted; limits worked out from the name ΔN59 and the printed domain limits; Co-crystallized with IMP, IMP not observed in the structure; Construct details are in Supplementary Methods; also called ∆N59-truncated PfISN1; source: E. coli BL21-CodonPlus (DE3)-RIL (structural studies), purified
With B3 the “stoichiometry N” value [5] was 4.
